One block for each binder: values may come before it. Starred links: 1 amine or outer side, 2 acyl side, 3 side chain; linkers in the order of their positions; H or OH if unused. Positions of bridges follow the written chain, without caps; N, C: chain ends. Non-standard residues stand in square brackets, D forms with d. Primed or numbered codes have the meaning given here. B5(10) = 2-amino-2-(pent-4-en-1-yl)hept-6-enoic acid, bis(4-pentenyl)glycine, stitching residue bearing both staples, C=CCCCC(CCCC=C)(N[*:1])C(=O)[*:2]; B5(4) = 2,2-bis(4-pentenyl)glycine = 2-amino-2-(pent-4-en-1-yl)hept-6-enoic acid (stitching residue), C=CCCCC(CCCC=C)(N[*:1])C(=O)[*:2]; B5(5) = 2,2-bis(4-pentenyl)glycine, 2-amino-2-(pent-4-en-1-yl)hept-6-enoic acid (stitching residue), C=CCCCC(CCCC=C)(N[*:1])C(=O)[*:2]; PyrS2 = (S)-3-amino-1-((pent-4-en-1-yloxy)carbonyl)pyrrolidine-3-carboxylic acid, C=CCCCOC(=O)N1CC[C@@](N[*:1])(C(=O)[*:2])C1; B5 = 2-amino-2-(pent-4-en-1-yl)hept-6-enoic acid, C=CCCCC(CCCC=C)(N[*:1])C(=O)[*:2]; Phe(3-CF3) = N[C@@H](Cc1cccc(C(F)(F)F)c1)C(=O)O; Phe(3-COOH) = N[C@@H](Cc1cccc(C(=O)O)c1)C(=O)O; Phe(2-CF3) = N[C@@H](Cc1ccccc1C(F)(F)F)C(=O)O; Phe(3-F) = N[C@@H](Cc1cccc(F)c1)C(=O)O; Bta = N[C@@H](Cc1csc2ccccc12)C(=O)O; αAllylPro = C=CC[C@@]1(C(=O)O)CCCN1; tBuAla = CC(C)(C)C[C@H](N)C(=O)O; Aad = N[C@@H](CCCC(=O)O)C(=O)O; S8 = C=CCCCCCC[C@](C)(N)C(=O)O
Tests used:
[1] = molecular target: T1, full-length beta-Catenin (Uniprot ID P35222) (Homo sapiens (Human), UniProt P35222 2-781); experiment: fluorescence polarization competition: full-length beta-catenin + 5FAM-TCF4(10-53) probe, peptide titrated
T1 construct: The AlphaScreen assay used a Histidine (Nickel Chelate) detection kit, so a His tag is likely, but no tag is described; also called B-Catenin; bCat
T1 sequence: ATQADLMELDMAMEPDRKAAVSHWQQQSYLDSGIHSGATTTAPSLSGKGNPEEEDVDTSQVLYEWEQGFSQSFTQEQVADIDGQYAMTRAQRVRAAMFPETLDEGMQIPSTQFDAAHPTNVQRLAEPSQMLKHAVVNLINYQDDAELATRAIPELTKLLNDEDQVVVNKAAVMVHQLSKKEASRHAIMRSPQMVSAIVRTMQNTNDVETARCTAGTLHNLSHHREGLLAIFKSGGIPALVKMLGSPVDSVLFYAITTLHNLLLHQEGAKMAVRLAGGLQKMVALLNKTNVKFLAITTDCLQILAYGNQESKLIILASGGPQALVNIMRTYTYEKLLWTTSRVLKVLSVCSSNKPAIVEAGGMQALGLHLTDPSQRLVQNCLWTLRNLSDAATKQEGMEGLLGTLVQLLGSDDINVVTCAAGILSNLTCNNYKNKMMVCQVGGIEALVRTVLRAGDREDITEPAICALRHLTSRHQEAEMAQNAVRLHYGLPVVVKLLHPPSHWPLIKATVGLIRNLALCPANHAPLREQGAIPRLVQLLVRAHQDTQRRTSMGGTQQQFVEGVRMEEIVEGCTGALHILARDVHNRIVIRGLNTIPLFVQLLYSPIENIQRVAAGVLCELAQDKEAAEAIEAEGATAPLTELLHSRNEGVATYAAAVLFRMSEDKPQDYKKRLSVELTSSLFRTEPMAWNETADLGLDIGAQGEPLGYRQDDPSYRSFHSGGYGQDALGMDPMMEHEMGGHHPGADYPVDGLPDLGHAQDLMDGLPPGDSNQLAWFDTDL
Protocol: (§1) The plate was incubated protected from light for 60 minutes at 20° C. prior to read. Reads were performed on a CLARIOstar plate reader (BMG Labtech) in duplicate, and data were fitted to a 1:1 binding model with hill slope using an in-house script. All provided concentrations are final concentrations.

[2] = molecular target: T1, full-length beta-Catenin (Uniprot ID …); experiment: AlphaScreen competition: full-length beta-catenin + biotin-TCF4(10-53) probe, peptide titrated
Protocol: as §1, with “Equal volume of the titrated peptide was added to the” for “The”, “and” for “was”, “incubated for 15 minutes at 20° C. Then 4 uL of donor and 4 uL acceptor beads at 10 ug/mL were added to the plate, for a 16 uL reaction pool and” for “incubated”

[3] = molecular target: T2, beta-Catenin (full-length, Uniprot ID P35222) (Homo sapiens (Human), UniProt P35222 1-781); experiment: fluorescence polarization competition: peptide titrated against 10 nM full-length beta-catenin + 10 nM 5FAM-labeled TCF4 residues 10-53 probe
T2 construct: also called bCat; B-Catenin
T2 sequence: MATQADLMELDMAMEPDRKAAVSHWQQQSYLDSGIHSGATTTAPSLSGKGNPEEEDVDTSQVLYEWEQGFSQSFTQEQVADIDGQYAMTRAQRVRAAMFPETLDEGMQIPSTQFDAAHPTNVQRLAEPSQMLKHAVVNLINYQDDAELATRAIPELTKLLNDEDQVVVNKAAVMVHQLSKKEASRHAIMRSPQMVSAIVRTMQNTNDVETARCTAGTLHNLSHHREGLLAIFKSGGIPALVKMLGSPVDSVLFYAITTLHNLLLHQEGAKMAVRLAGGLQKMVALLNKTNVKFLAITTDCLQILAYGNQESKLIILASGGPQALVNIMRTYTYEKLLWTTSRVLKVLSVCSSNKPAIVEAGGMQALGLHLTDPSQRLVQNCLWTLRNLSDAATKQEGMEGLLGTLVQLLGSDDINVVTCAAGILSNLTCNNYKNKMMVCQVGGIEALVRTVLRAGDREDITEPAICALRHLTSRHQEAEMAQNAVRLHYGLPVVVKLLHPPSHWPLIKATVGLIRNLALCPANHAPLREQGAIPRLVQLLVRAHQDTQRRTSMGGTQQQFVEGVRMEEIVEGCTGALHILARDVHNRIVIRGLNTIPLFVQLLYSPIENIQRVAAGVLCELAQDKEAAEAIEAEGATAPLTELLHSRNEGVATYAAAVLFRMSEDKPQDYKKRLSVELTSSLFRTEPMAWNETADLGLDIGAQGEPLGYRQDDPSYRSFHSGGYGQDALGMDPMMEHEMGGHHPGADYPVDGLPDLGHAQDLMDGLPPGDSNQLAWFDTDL
Protocol: as §1

[4] = molecular target: T3, beta-catenin in DLD1 TCF/LEF luciferase reporter cells (UniProt P35222 1-781); experiment: cell-based or functional assay
T3 sequence (looked up): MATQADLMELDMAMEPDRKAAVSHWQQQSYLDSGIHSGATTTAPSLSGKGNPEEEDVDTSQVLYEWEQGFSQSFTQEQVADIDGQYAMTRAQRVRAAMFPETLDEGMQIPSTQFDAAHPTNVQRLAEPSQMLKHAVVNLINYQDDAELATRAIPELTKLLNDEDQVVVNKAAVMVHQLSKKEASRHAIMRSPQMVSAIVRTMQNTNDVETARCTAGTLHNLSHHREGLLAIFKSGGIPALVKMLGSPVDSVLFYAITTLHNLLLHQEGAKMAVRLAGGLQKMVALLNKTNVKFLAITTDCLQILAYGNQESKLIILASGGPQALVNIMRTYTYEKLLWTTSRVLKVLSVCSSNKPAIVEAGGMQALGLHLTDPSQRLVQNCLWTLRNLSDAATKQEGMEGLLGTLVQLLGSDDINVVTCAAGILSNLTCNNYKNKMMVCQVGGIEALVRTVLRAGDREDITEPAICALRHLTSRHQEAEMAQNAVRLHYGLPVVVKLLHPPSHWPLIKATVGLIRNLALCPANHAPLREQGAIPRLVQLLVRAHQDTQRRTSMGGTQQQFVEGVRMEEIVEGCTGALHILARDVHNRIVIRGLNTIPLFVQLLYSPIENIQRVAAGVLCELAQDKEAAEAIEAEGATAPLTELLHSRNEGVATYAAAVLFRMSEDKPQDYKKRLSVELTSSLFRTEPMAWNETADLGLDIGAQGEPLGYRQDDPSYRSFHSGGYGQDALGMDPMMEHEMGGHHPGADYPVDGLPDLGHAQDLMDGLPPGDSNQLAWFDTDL

[5] = molecular target: T4, full-length beta-Catenin (Uniprot ID P35222) (Homo sapiens (Human), UniProt P35222 2-781); experiment: fluorescence polarization competition; 5FAM-TCF4(10-53) probe with full-length beta-catenin
T4 construct: also called B-Catenin; bCat
T4 sequence: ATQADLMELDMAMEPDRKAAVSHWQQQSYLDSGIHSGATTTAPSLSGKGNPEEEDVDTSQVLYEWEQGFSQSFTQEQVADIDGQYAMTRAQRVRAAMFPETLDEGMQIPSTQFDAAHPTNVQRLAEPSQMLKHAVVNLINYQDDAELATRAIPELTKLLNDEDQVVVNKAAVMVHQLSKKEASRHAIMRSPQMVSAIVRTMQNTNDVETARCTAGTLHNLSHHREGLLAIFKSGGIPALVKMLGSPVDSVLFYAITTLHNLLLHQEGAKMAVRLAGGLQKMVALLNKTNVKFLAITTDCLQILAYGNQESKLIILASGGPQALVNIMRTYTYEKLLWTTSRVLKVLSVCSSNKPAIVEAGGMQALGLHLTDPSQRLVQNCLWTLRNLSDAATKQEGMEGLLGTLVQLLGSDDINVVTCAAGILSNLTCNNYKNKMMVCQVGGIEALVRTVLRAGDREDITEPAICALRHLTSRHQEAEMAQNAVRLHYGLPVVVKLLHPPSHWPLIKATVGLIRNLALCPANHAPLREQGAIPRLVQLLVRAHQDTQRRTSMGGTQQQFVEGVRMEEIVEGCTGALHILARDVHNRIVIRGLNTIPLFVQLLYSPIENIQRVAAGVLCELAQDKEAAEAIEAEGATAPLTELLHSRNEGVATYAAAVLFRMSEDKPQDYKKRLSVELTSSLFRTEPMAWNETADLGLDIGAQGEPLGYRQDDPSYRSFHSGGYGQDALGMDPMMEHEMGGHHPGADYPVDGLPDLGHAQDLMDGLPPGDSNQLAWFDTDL
Protocol: as §1

[6] = molecular target: T4, full-length beta-Catenin (Uniprot ID …); experiment: Alphascreen competition; biotin-TCF4(10-53) probe with full-length beta-catenin
Protocol: as §1, with “Equal volume of the titrated peptide was added to the” for “The”, “and” for “was”, “incubated for 15 minutes at 20° C. Then 4 uL of donor and 4 uL acceptor beads at 10 ug/mL were added to the plate, for a 16 uL reaction pool and” for “incubated”

EC50 [1]: 5 µM | EC50 [2]: 1.96 µM
B1: I-254 (peptide)
peptide: XDAXDDAAFVXFWQ
modifications: not fully specified; N-terminal Ac; C-terminal NH2; PL3 at 1, B5 at 4, S8 at 11 (staples 1-4 and 4-11 by olefin metathesis); 4F3MeF at 12
notes: Stapled peptide composition; also called Ac-PL3-Asp-Ala-B5-Asp-Asp-Ala-Ala-Phe-Val-S8-4F3MeF-Trp-Gln-NH2

IC50 [3]: 5 µM
B2: I-250: Ac-PL3-Asp-Ala-B5-Asp-Asp-Ala-Ala-Phe-Val-S8-3F3MeF-Trp-Gln-NH2 (peptide)
peptide: Ac-[αAllylPro]DA[B5]DDAAFV[S8][Phe(3-CF3)]WQ-NH2
modifications: staple 1-4, 4-11
notes: These are separate isomer compositions

IC50 [3]: 5 µM
B3: I-263: Ac-PL3-Asp-Ala-B5-Asp-Asp-Ala-Ala-Phe-Val-S8-34FF-Trp-Gln-NH2 (peptide)
peptide: XDAXDDAAFVXFWQ
modifications: not fully specified; N-terminal Ac; PL3 at position 1; B5 at position 4; S8 at position 11; 34FF at position 12; C-terminal NH2; stapled by olefin metathesis (PL3-B5 and B5-S8)
notes: It is the later-eluting isomer composition

DLD1 4% Abs IC50 [4]: 2.2 µM
B4: I-2399 (peptide)
peptide: Ac-[αAllylPro]D[tBuAla][B5(5)]D[Phe(3-COOH)]AAFL[PyrS2][Phe(2-CF3)][Bta]QAA-NH2
modifications: staple 1-4, 4-11

IC50 [3]: 5 µM
B5: I-260: Ac-PL3-Asp-Ala-B5-Asp-Asp-Ala-Ala-Phe-Val-S8-3FF-Trp-Gln-NH2 (peptide)
peptide: Ac-[αAllylPro]DA[B5(4)]DDAAFV[S8][Phe(3-F)]WQ-NH2
modifications: staple 1-4, 4-11
notes: Stapled peptide

EC50 [5]: 5 µM
B6: I-133 (peptide)
peptide: XDAXDEAAFVXFWX
modifications: not fully specified; as printed: Ac-PL3-Asp-Ala-B5-Asp-Glu-Ala-Ala-Phe-Val-S8-Phe-Trp-Aib-NH2; staples PL3(1)-B5(4) and B5(4)-S8(11)
notes: Stitched (two-staple) peptide composition

EC50 [5]: 1.98 µM | EC50 [6]: 0.083 µM
B7: I-129 (peptide)
peptide: Ac-[αAllylPro]DA[B5(10)]D[Aad]AAFV[S8]FWQ-NH2
modifications: staple 1-4, 4-11
notes: as for B6
